The text below walks through data of the supplement of paper PMC11316812.

± gives the standard deviation of the averaged measurements.

Data set [1] relates to MCF7. Nature of the data set: percentage of EdU-negative (G0-arrested) nuclei per well, 72 h; higher = more G0 arrest. The note with it: reference: sequence is the full UniProt precursor, the tested protein was the secreted form or ectodomain.
The subject of data set [2] is hTERT-HMEC. The description is as above. The note with it: reference: sequence is the full UniProt precursor, the tested protein was the secreted form or ectodomain.
[3] abbreviates: protein concentration 0.0251975 µM.
[4] abbreviates: protein concentration 0.251975 µM.
Setting [5] is: protein concentration 0.0294675 µM.
Where [6] appears, read: protein concentration 0.294675 µM.
[7] abbreviates: protein concentration 0.0357143 µM.
Where [8] appears, read: protein concentration 0.357143 µM.
Where [9] appears, read: protein concentration 0.0175 µM.
[10] abbreviates: protein concentration 0.0225 µM.
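Note: secreted proteins added to cultured cells, EdU pulse at the end, nuclei found by Hoechst imaging, EdU status from nuclear versus surrounding ring intensity ratio, PBS as neutral control.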

As for “MLRRRGSPGMGVHVGAALGALWFCLTGALEVQVPEDPVVALVGTDATLCCSFSPEPGFSLAQLNLIWQLTDTKQLVHSFAEGQDQGSAYANRTALFPDLLAQGNASLRLQRVRVADEGSFTCFVSIRDFGSAAVSLQVAAPYSKPSMTLEPNKDLRPGDTVTITCSSYQGYPEAEVFWQDGQGVPLTGNVTTSQMANEQGLFDVHSILRVVLGANGTYSCLVRNPVLQQDAHSSVTITPQRSPTGAVEVQVPEDPVVALVGTDATLRCSFSPEPGFSLAQLNLIWQLTDTKQLVHSFTEGRDQGSAYANRTALFPDLLAQGNASLRLQRVRVADEGSFTCFVSIRDFGSAAVSLQVAAPYSKPSMTLEPNKDLRPGDTVTITCSSYRGYPEAEVFWQDGQGVPLTGNVTTSQMANEQGLFDVHSVLRVVLGANGTYSCLVRNPVLQQDAHGSVTITGQPMTFPPEALWVTVGLSVCLIALLVALAFVCWRKIKQSCEEENAGAEDQDGEGEGSKTALQPLKHSDSKEDDGQEIA [Q5ZPR3]”, the “percentage of EdU-negative” value in data set [1] (protein concentration 0.019 µM) came to 24.4 ± 2.3%; in data set [1] (protein concentration 0.19 µM) it was 27.33 ± 0.26%; in data set [2] (protein concentration 0.019 µM), 5.89 ± 0.34%; in data set [2] (protein concentration 0.19 µM) it was 9.74 ± 0.48%.
With “MAPLKMLALVTLLLGASLQHIHAARGTNVGRECCLEYFKGAIPLRKLKTWYQTSEDCSRDAIVFVTVQGRAICSDPNNKRVKNAVKYLQSLERS”, the “percentage of EdU-negative” value was 26 ± 0.51% in data set [1] (setting [3]), 25.9 ± 0.28% in data set [1] (setting [4]), 5.05 ± 1.6% in data set [2] (setting [3]) and 5.85 ± 0.93% in data set [2] (setting [4]).
For the sequence “MRAWIFFLLCLAGRALAAPQQEALPDETEVVEETVAEVTEVSVGANPVQVEVGEFDDGAEETEEEVVAENPCQNHHCKHGKVCELDENNTPMCVCQDPTSCPAPIGEFEKVCSNDNKTFDSSCHFFATKCTLEGTKKGHKLHLDYIGPCKYIPPCLDSELTEFPLRMRDWLKNVLVTLYERDEDNNLLTEKQKLRVKKIHENEKRLEAGDHPVELLARDFEKNYNMYIFPVHWQFGQLDQHPIDGYLSHTELAPLRAPLIPMEHCTTRFFETCDLDNDKYIALDEWAGCFGIKQKDIDKDLVI”, the “percentage of EdU-negative” value in data set [1] (setting [5]) worked out at 26.73 ± 0.018%; in data set [1] (setting [6]) it was 24.8 ± 0.39%; in data set [2] (setting [5]), 4.83 ± 0.18%; in data set [2] (setting [6]) it was 5.23 ± 0.79%.
For the sequence “MARILLLFLPGLVAVCAVHGIFMDRLASKKLCADDECVYTISLASAQEDYNAPDCRFINVKKGQQIYVYSKLVKENGAGEFWAGSVYGDGQDEMGVVGYFPRNLVKEQRVYQEATKEVPTTDIDFFCE [Q9NRC9]”, the “percentage of EdU-negative” value in data set [1] (setting [7]) worked out at 24.18 ± 0.24%; in data set [1] (setting [8]) it was 27 ± 3.7%; in data set [2] (setting [7]), 5.05 ± 0.39%; in data set [2] (setting [8]), 5.74 ± 0.68%.
As for “MSAFRLWPGLLIMLGSLCHRGSPCGLSTHVEIGHRALEFLQLHNGRVNYRELLLEHQDAYQAGIVFPDCFYPSICKGGKFHDVSESTHWTPFLNASVHYIRENYPLPWEKDTEKLVAFLFGITSHMAADVSWHSLGLEQGFLRTMGAIDFHGSYSEAHSAGDFGGDVLSQFEFNFNYLARRWYVPVKDLLGIYEKLYGRKVITENVIVDCSHIQFLEMYGEMLAVSKLYPTYSTKSPFLVEQFQEYFLGGLDDMAFWSTNIYHLTSFMLENGTSDCNLPENPLFIACGGQQNHTQGSKMQKNDFHRNLTTSLTESVDRNINYTERGVFFSVNSWTPDSMSFIYKALERNIRTMFIGGSQLSQKHVSSPLASYFLSFPYARLGWAMTSADLNQDGHGDLVVGAPGYSRPGHIHIGRVYLIYGNDLGLPPVDLDLDKEAHRILEGFQPSGRFGSALAVLDFNVDGVPDLAVGAPSVGSEQLTYKGAVYVYFGSKQGGMSSSPNITISCQDIYCNLGWTLLAADVNGDSEPDLVIGSPFAPGGGKQKGIVAAFYSGPSLSDKEKLNVEAANWTVRGEEDFSWFGYSLHGVTVDNRTLLLVGSPTWKNASRLGHLLHIRDEKKSLGRVYGYFPPNGQSWFTISGDKAMGKLGTSLSSGHVLMNGTLKQVLLVGAPTYDDVSKVAFLTVTLHQGGATRMYALTSDAQPLLLSTFSGDRRFSRFGGVLHLSDLDDDGLDEIIMAAPLRIADVTSGLIGGEDGRVYVYNGKETTLGDMTGKCKSWITPCPEEKAQYVLISPEASSRFGSSLITVRSKAKNQVVIAAGRSSLGARLSGALHVYSLGSD”, the “percentage of EdU-negative” value in data set [1] (setting [9]) is 25.88 ± 0.089%; in data set [1] (protein concentration 0.175 µM) it was 31.8 ± 1.3%; in data set [2] (setting [9]), 4.66 ± 0.8%; in data set [2] (protein concentration 0.175 µM) it was 7.38 ± 0.61%.
On to “MQPPRERLVVTGRAGWMGMGRGAGRSALGFWPTLAFLLCSFPAATSPCKILKCNSEFWSATSGSHAPASDDTPEFCAALRSYALCTRRTARTCRGDLAYHSAVHGIEDLMSQHNCSKDGPTSQPRLRTLPPAGDSQERSDSPEICHYEKSFHKHSATPNYTHCGLFGDPHLRTFTDRFQTCKVQGAWPLIDNNYLNVQVTNTPVLPGSAATATSKLTIIFKNFQECVDQKVYQAEMDELPAAFVDGSKNGGDKHGANSLKITEKVSGQHVEIQAKYIGTTIVVRQVGRYLTFAVRMPEEVVNAVEDWDSQGLYLCLRGCPLNQQIDFQAFHTNAEGTGARRLAAASPAPTAPETFPYETAVAKCKEKLPVEDLYYQACVFDLLTTGDVNFTLAAYYALEDVKMLHSNKDKLHLYERTRDLPGRAAAGLPLAPRPLLGALVPLLALLPVFC [Q96B86]”, for which the “percentage of EdU-negative” value is 25.3 ± 1.1% in data set [1] (setting [10]), 26.4 ± 2% in data set [1] (protein concentration 0.225 µM), 5.15 ± 0.82% in data set [2] (setting [10]) and 6.53 ± 1.7% in data set [2] (protein concentration 0.225 µM).
On to “MQCRLPRGLAGALLTLLCMGLLCLRYHLNLSPQRVQGTPELSQPNPGPPKLQLHDVFIAVKTTRAFHRLRLELLLDTWVSRTREQTFVFTDSPDKGLQERLGSHLVVTNCSAEHSHPALSCKMAAEFDTFLASGLRWFCHVDDDNYVNPRALLQLLRAFPLARDVYVGRPSLNRPIHASEPQPHNRTRLVQFWFATGGAGFCINRKLALKMAPWASGSRFMDTSALIRLPDDCTMGYIIECKLGGRLQPSPLFHSHLETLQLLRTAQLPEQVTLSYGVFEGKLNVIKLQGPFSPEEDPSRFRSLHCLLYPDTPWCPQLGAR”, for which the “percentage of EdU-negative” value was 25.3 ± 2.3% in data set [1] (setting [10]), 29.9 ± 2.4% in data set [1] (protein concentration 0.225 µM), 5.18 ± 0.59% in data set [2] (setting [10]) and 11.6 ± 0.88% in data set [2] (protein concentration 0.225 µM).
With “MKLITILFLCSRLLLSLTQESQSEEIDCNDKDLFKAVDAALKKYNSQNQSNNQFVLYRITEATKTVGSDTFYSFKYEIKEGDCPVQSGKTWQDCEYKDAAKAATGECTATVGKRSSTKFSVATQTCQITPAEGPVVTAQYDCLGCVHPISTQSPDLEPILRHGIQYFNNNTQHSSLFMLNEVKRAQRQVVAGLNFRITYSIVQTNCSKENFLFLTPDCKSLWNGDTGECTDNAYIDIQLRIASFSQNCDIYPGKDFVQPPTKICVGCPRDIPTNSPELEETLTHTITKLNAENNATFYFKIDNVKKARVQVVAGKKYFIDFVARETTCSKESNEELTESCETKKLGQSLDCNAEVYVVPWEKKIYPTVNCQPLGMISLMKRPPGFSPFRSSRIGEIKEETTVSPPHTSMAPAQDEERDSGKEQGHTRRHDWGHEKQRKHNLGHGHKHERDQGHGHQRGHGLGHGHEQQHGLGHGHKFKLDDDLEHQGGHVLDHGHKHKHGHGHGKHKNKGKKNGKHNGWKTEHLASSSEDSTTPSAQTQEKTEGPTPIPSLAKPGVTVTFSDFQDSDLIATMMPPISPAPIQSDDDWIPDIQIDPNGLSFNPISDFPDTTSPKCPGRPWKSVSEINPTTQMKESYYFDLTDGLS”, the “percentage of EdU-negative” value in data set [1] (protein concentration 0.006 µM) was determined as 24.3 ± 0.58%; in data set [1] (protein concentration 0.06 µM), 26.5 ± 0.67%; in data set [2] (protein concentration 0.006 µM) it was 4.85 ± 0.42%; in data set [2] (protein concentration 0.06 µM) it was 6.72 ± 0.15%.
